In the supplement of paper PMC7877785:
± gives the uncertainty stated by the source.

Assay: self-splicing fitness, log relative to wild type (ln ratio); higher = more splicing; Tetrahymena group I intron in knt gene, E. coli kanamycin selection, DiMSum; sequences stand for … in CUCUCU…GGAGGGAAAAGUUAUCAGGCAUGCACCUGGUAGCUAGUCUUUAAACCAAUAGAUUGCAUCGGUUUAAAAGGCAAGACCGUCAAAUUGCGGGAAAGGGGUCAACAGCCGUUCAGUACCAAGUCUCAGGGGAAACUUUGAGAUGGCCUUGCAAAGGGUAUGGUAAUAAGCUGACGGACAUGGUCCUAACCACGCAGCCAAGUCCUAAGUCAACAGAUCUUCUGUUGAUAUGGAUGCAGUUCACAGACUAAAUGUCGGUCGGGGAAGAUGUAUUCUUCUCAUAAGAUAUAGUCGGACCUCUCCUUAAUGGGAGCUAGCGGAUGAAGUGAUGCAACACUGGAGCCGCUGGGAACUAAUUUGUAUGCGAAAGUAUAUUGAUUAGUUUUGGAGUACUCGUGGUCG
How it was run: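 DiMSum derived fitness as the error-weighted combination of fold changes across replicates, kanamycin versus no kanamycin, normalised to wild type. E. coli BL21(DE3) held the library, which randomised all eight P1ex-region intron nucleotides within the knt kanamycin-resistance gene on pET-22b(+). Six replicate transformations grew overnight at 37°C or 30°C on LB agar with or without 25 μg/mL kanamycin, also containing 100 μg/mL carbenicillin, 50 μM IPTG and 0.2% rhamnose, and pooled colonies were amplicon-sequenced on an Illumina HiSeq 2500.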

Sequence | self-splicing fitness (ln) (30 °C) | self-splicing fitness (ln) (37 °C)
AACUAGCAAUAUUACGCUUC | -3.74 ± 0.33 | -1.68 ± 0.2
GGAUAGCAAUAUUACGUAGU | -3.21 ± 0.15 | -1.67 ± 0.15
AUUAAGCAAUAUUACGAUAG | -3.89 ± 0.37 | -2.55 ± 0.31
UCGGAGCAAUAUUACGGAUC | -3.21 ± 0.43 | 
GUUUAGCAAUAUUACGGGUU |  | -2.92 ± 0.35
ACCCAGCAAUAUUACGUUUU | -1.41 ± 0.048 | -0.336 ± 0.066
GCCCAGCAAUAUUACGGAAC | -1 ± 0.055 | -0.0936 ± 0.079
CCCAAGCAAUAUUACGUGGG | -3.29 ± 0.11 | -2.82 ± 0.17
AAAGAGCAAUAUUACGAAGC | -1.67 ± 0.21 | -2.04 ± 0.47
UAUAAGCAAUAUUACGCGAG | -1.39 ± 0.12 | -1.02 ± 0.11
CCCGAGCAAUAUUACGCCUA | -1.85 ± 0.25 | -2.94 ± 0.35
UGGCAGCAAUAUUACGUGCU | -2.71 ± 0.14 | -1.79 ± 0.17
GCGUAGCAAUAUUACGAUUG | -2.26 ± 0.18 | -1.98 ± 0.21
ACACAGCAAUAUUACGACUG | -0.972 ± 0.047 | -0.67 ± 0.06
AGUUAGCAAUAUUACGAUCG | -0.446 ± 0.1 | -0.0837 ± 0.12
UCUGAGCAAUAUUACGCGUU | -4.91 ± 0.45 | -2.63 ± 0.28
UAGGAGCAAUAUUACGACUC | -2.01 ± 0.28 | 
ACCCAGCAAUAUUACGGGGA | -1.02 ± 0.053 | -0.524 ± 0.065
UCGAAGCAAUAUUACGGCGG | -1.14 ± 0.11 | -0.364 ± 0.17
AAAGAGCAAUAUUACGCAUC | -3.52 ± 0.35 | -2.24 ± 0.35

Sequence | self-splicing fitness (ln) (30 °C) | self-splicing fitness (ln) (37 °C)
UUGCAGCAAUAUUACGCAAG | -1.92 ± 0.16 | -2.89 ± 0.36
CUACAGCAAUAUUACGUCAA | -3.91 ± 0.19 | -1.82 ± 0.14
AUUUAGCAAUAUUACGUUUU | -3.37 ± 0.24 | -2.25 ± 0.2
UGUUAGCAAUAUUACGUGAC | -2.93 ± 0.31 | -2.01 ± 0.29
UCACAGCAAUAUUACGAUAA | -1.65 ± 0.066 | -0.733 ± 0.074
GUUAAGCAAUAUUACGAUUC | 0.0872 ± 0.085 | -0.608 ± 0.11
UAGUAGCAAUAUUACGAUGC | -4.61 ± 0.34 | -2.56 ± 0.2
AUUUAGCAAUAUUACGAGGG |  | -1.34 ± 0.28
AAAGAGCAAUAUUACGCGUA | -1.96 ± 0.18 | -1.61 ± 0.16
CUACAGCAAUAUUACGGGCU | -4.53 ± 0.29 | -2.97 ± 0.29
UCCGAGCAAUAUUACGAAGG | -2.07 ± 0.11 | -1.43 ± 0.13
CUAAAGCAAUAUUACGAGUG | 0.178 ± 0.047 | 0.456 ± 0.077
UCUUAGCAAUAUUACGACAA | -2.45 ± 0.32 | -1.18 ± 0.29
ACUUAGCAAUAUUACGAGCU | -0.379 ± 0.099 | -0.0037 ± 0.14
CGUGAGCAAUAUUACGAUGC | -0.111 ± 0.43 | -2 ± 0.48
ACGGAGCAAUAUUACGACUG | -1.95 ± 0.14 | -0.681 ± 0.13
AGAUAGCAAUAUUACGAUAG | -2.88 ± 0.21 | -2.31 ± 0.18
GUUAAGCAAUAUUACGUGGC |  | -2.1 ± 0.33
CAGUAGCAAUAUUACGAGGA | -3.13 ± 0.24 | -1.77 ± 0.2
